# Reference: the RNAGym collection of RNA variant scans (doi:10.7554/elife.80360)
# B1: Hairpin Ribozyme (parent)
# chain: GUCCUCUUUCACGUGCGCGUGAAAGAGAGAAGUGAACCAGAGAAACACACGUUGUGGUAUAUUACCUGGUA
# Variants of: B1
# Assay: self-cleavage, relative activity (ratio to wild type); higher = more cleavage; co-transcriptional
row,Variant,self-cleavage
1,U7C A26G,0.667
2,C50U U55G,0.368
3,A28C C66G,0.197
4,C16A A47U,0.0731
5,U5G G40C,0.14
6,A26G U53C,0.565
7,G19C A30U,0.161
8,A26C U33C,0.143
9,G29C G54C,0.0908
10,C37G C46G,0.211
11,C12U A61G,0.255
12,U62A C66U,0.143
13,C3U A35G,0.717
14,G17U U70A,0.95
15,U60C U62C,0.569
16,U5G C38A,0.12
17,G57A A64C,0.118
18,G27U G40C,0.0532
19,C3U C10U,0.454
20,G19A A47U,0.144
21,G27A C37U,0.32
22,C50G G57A,0.0857
23,A24C U67G,0.27
24,U8C G32U,0.0859

row,Variant,self-cleavage
1,A35U A39U,0.391
2,U20G G54U,0.595
3,A45G C50A,0.123
4,G54U A59U,0.178
5,A23U U52A,0.947
6,A24G A59C,0.213
7,A24G C38U,0.31
8,G19C A36C,0.374
9,C4G G34A,0.5
10,A31C C46U,0.187
11,C18U G40A,0.265
12,C18G A49C,0.12
13,U20C A28U,0.393
14,C38U A47G,0.163
15,G32U G69A,0.115
16,C16G U33G,0.12
17,A41C A71U,1.18
18,A11U U53G,0.69
19,C38U C65G,0.164
20,G21A A35G,0.729
21,U58C G69A,0.421
22,G1C G51A,0.343
23,C10G G40C,0.122
24,U7C G68A,0.339

row,Variant,self-cleavage
1,G21C U60A,0.744
2,U9A C12G,0.512
3,A11G G15C,0.859
4,U7C A30G,0.0858
5,A26C A71U,0.567
6,C66G G68U,0.0439
7,G25U A39G,0.191
8,G29A G68A,0.125
9,U60C G69U,0.0645
10,G21A G42U,0.249
11,U58A G68C,0.194
12,A49C U62A,0.15
13,C38A,0.171
14,C46U C48G,0.141
15,A28C G51C,0.336
16,C18A G42C,0.35
17,G51C G54C,0.215
18,A43U C65A,0.0905
19,A59C U70A,0.112
20,C16U G29A,0.146
21,G34A A45C,0.202
22,C48U G51A,0.082
23,U53C G57A,0.326
24,C18U A39U,0.429

row,Variant,self-cleavage
1,A23C C66G,0.166
2,C38A A47G,0.106
3,G51C A71U,0.722
4,U2C U62C,0.203
5,U2G G40A,0.105
6,U14A A23U,0.701
7,C16A C50G,0.24
8,G54A G56U,0.104
9,U2A G34C,0.501
10,U52A A71U,0.915
11,U7A A26G,0.71
12,G29A C66G,0.0855
13,C50U G56C,0.19
14,G13C A23C,0.364
15,U9C A31U,0.153
16,G21C A43G,0.104
17,U8G A41C,0.801
18,C12U G15A,0.687
19,U14C A24U,0.545
20,C48U A61U,0.151
21,U33A U52C,0.122
22,A31U G57A,0.169
23,G15U G25A,0.703
24,A24G G56C,0.14

row,Variant,self-cleavage
1,U33A A35C,0.0785
2,U7G U70C,0.838
3,C4U U9G,0.178
4,U33A U58A,0.0766
5,C50A G57A,0.138
6,U14G G15C,0.864
7,U5A G13C,0.19
8,U7A C66G,0.146
9,C12G G51A,0.965
10,U62G G68C,0.186
11,C3G G40A,0.0852
12,A26U G34U,1.37
13,U14G U33G,0.127
14,U14A G68A,0.173
15,U5A U8G,0.261
16,G34U U67C,0.976
17,C18A G32A,0.169
18,A49U A59C,0.179
19,G29A A61G,0.125
20,U9A A45C,0.154
21,G51U G69C,0.519
22,C4U U53G,0.412
23,A35C A59G,0.124
24,G19U C37G,0.341

row,Variant,self-cleavage
1,A22G A61U,0.159
2,U60A A64C,0.206
3,G17A U33C,0.113
4,A26G G34U,1.37
5,C46A G51A,0.215
6,A36G U70A,1.11
7,C37A A61U,0.142
8,C3U C16A,0.462
9,C12U A44G,0.201
10,U9G U52C,0.546
11,C4A G51C,0.261
12,A44G U53G,0.112
13,U9C C18A,0.84
14,C16U U62A,0.18
15,G34A C48U,0.191
16,G21A A43U,0.123
17,U33G C65G,0.122
18,C4G G27C,0.653
19,A41G A71U,0.733
20,C18U C48U,0.0571
21,G1C G21C,0.378
22,C37G C46A,0.174
23,U8C G27U,0.158
24,C16U G17C,0.985

row,Variant,self-cleavage
1,A26G A30C,0.0939
2,C10A U55C,0.248
3,C3G U70G,0.272
4,A43G U67G,0.207
5,A47U G54C,0.144
6,U7G A64U,0.143
7,A23U A64G,0.474
8,U2A G17C,0.22
9,C4A G32C,0.155
10,G13A G15C,0.753
11,U20C U67C,0.2
12,G19C A71U,0.722
13,G13U U53A,0.777
14,A22C U58C,0.94
15,G54A G68C,0.208
16,G21U A24C,0.481
17,G25C A26C,0.199
18,U67G G69U,0.165
19,C18U A31U,0.112
20,C37U C65G,0.163
21,G32A A47C,0.143
22,C3G G42U,0.188
23,G21A A39U,0.346
